B1: OR4K15 (parent)
chain: GUUAACGGUCAUAGGCCAUGGAAACUAGGAGCACCAUUUCGCUGCCAGUGAAGAAAUGAACAAAGAAAAUCUGGGCCAGGCAGGCAUCAAAAGAAAUAGUCUUGCGCUCAACCAGAAAGUCUGUAAUCAUUUUAAGGGUA

Variants of B1 are the subject of the data set. As to the kind of experiment: self-cleavage, relative activity (ratio to wild type); higher = more cleavage; in vitro, sequencing; the parent is a self-cleaving ribozyme.
With GUUAACGGUCAUAGGCCAUGGAAACUAGGGGCACCAUUUCGCUGCCAGUGAAGAAAUGAACAAAGAAAAUCUGGGCCAGGCAGGCAUCAAAAGAAAUAGUCUUGCGCUCAACCAGAUAGUCUGUAAUCAUUUUAAGGGUA [A30G A117U], the self-cleavage was found to be 0.99. As to GUUAACGGUCAUAGGCCAUGGAAACUAGGGGCACCAUUUCGCUGCCAGUGAAGAAAUGAACAAAGAAAAUCUGGGCCAGGCAGGCAUCAAAAGAAAUAGUCUUGCGCUCAACCAGACAGUCUGUAAUCAUUUUAAGGGUA [A30G A117C], the self-cleavage is 0.61. Then GUUAACGGUCAUAGGCCAUGGAAACUAGGGGCACCAUUUCGCUGCCAGUGAAGAAAUGAACAAAGAAAAUCUGGGCCAGGCAGGCAUCAAAAGAAAUAGUCUUGUGCUCAACCAGAAAGUCUGUAAUCAUUUUAAGGGUA [A30G C105U], with 0.17; and GUUAACGGUCAUAGGCCAUGGAAACUAGGGGCACCAUUUCGCUGCCAGUGAAGAAAUGAACAAAGAAAAUCUGGGCCAGGCAGGCACCAAAAGAAAUAGUCUUGCGCUCAACCAGAAAGUCUGUAAUCAUUUUAAGGGUA [A30G U87C], with 1.39; and GUUAACGGUCAUAGGCCAUGGAAACUAGGGGCACCAUUUCGCUGUCAGUGAAGAAAUGAACAAAGAAAAUCUGGGCCAGGCAGGCAUCAAAAGAAAUAGUCUUGCGCUCAACCAGAAAGUCUGUAAUCAUUUUAAGGGUA [A30G C45U], with 1.06. Then GUUAACGGUCAUAGGCCAUGGAAACUAGGGGCACCAUUUCGCUGCCAGUGAAGAAAUGAACAAAGAAAAUCUGGGCCAGGCAGGCAUCAAAAGAAAUAGUCUUGCGCUCAACCAGAAAGUCUGUAAUCAUUUUAAGUGUA [A30G G137U], with 0.71; and GUUAACGGUCAUAGGCCAUGGAAACUAGGGGCACCAUUUCGCUGCCAGUGAAGAAAUGAACAAAGAAAAUCUGGGCCAGGCAGGCAUCAAAAGAAAUAGUCUUGCGCUCAACCAGAAAGUCUGUAAUCAUUUUAAGAGUA [A30G G137A], with 1.06.

With GUUAACGGUCAUAGGCCAUGGAAACUAGGGGCAACAUUUCGCUGCCAGUGAAGAAAUGAACAAAGAAAAUCUGGGCCAGGCAGGCAUCAAAAGAAAUAGUCUUGCGCUCAACCAGAAAGUCUGUAAUCAUUUUAAGGGUA [A30G C34A], the self-cleavage came to 0.85.

GUUAACGGUCAUAGGCCAUGGAAACUAGGGGCACCAUUUCGCUGCCAGUGAAGAAAUGAACAAAGAAAAUCUGGGCCAGGCAGGCAUCAAAAGAAAUAGUCUUGCGCUCAACCAGAAAGUCUGUAAUCACUUUAAGGGUA [A30G U130C]: the self-cleavage worked out at 0.6. For GUUAACGGUCAUAGGCCAUGGAAACUAGGGGCACCAUUUCGCUGCCAGUGAAGAAAUGAACAAAGAAAAUCUGGGCCAGGCAGGCAUCAAAAGAAAUAGUCUUGCGCUCAACCAGAAAGUCUGUAAUCAGUUUAAGGGUA [A30G U130G], the self-cleavage is 1.09. Regarding GUUAACGGUCAUAGGCCAUGGAAACUAGGGGCACCAUUUCGCUGCCAGUGAAGAAAUGAACAAAGAAAAUCUGGCCCAGGCAGGCAUCAAAAGAAAUAGUCUUGCGCUCAACCAGAAAGUCUGUAAUCAUUUUAAGGGUA [A30G G75C], the self-cleavage is 0.19. Then GUUAACGGUCAUAGGCCAUGGAAACUAGGGGCACCAUUUCGCUGCCAGUGAAGAAAUGAACAAAGAAAAUCAGGGCCAGGCAGGCAUCAAAAGAAAUAGUCUUGCGCUCAACCAGAAAGUCUGUAAUCAUUUUAAGGGUA [A30G U72A], with 0.36. Then GUUAACGGUCAUAGGCCAUGGAAACUAGGGGCACCAUUUCGCUGCCAGUGAAGAAAUGAACAAAGAAAAUCCGGGCCAGGCAGGCAUCAAAAGAAAUAGUCUUGCGCUCAACCAGAAAGUCUGUAAUCAUUUUAAGGGUA [A30G U72C], with 0.24.

As for GUUAACGGUCAUAGGCCAUGGAAACUAGGGGCACCAUUUCGCUGCCAGUGAAGAAAUAAACAAAGAAAAUCUGGGCCAGGCAGGCAUCAAAAGAAAUAGUCUUGCGCUCAACCAGAAAGUCUGUAAUCAUUUUAAGGGUA [A30G G58A], the self-cleavage came out at 0.67.

For the variant GUUAACGGUCAUAGGCCAUGGAAACUAGGGGCACCAUUUCGCUGCCAGUGAAGAAAUGAACAAAGAAAAUCUGGGCCAGGCAGGCAUCAAAAGAAAUAGACUUGCGCUCAACCAGAAAGUCUGUAAUCAUUUUAAGGGUA [A30G U100A], the self-cleavage amounted to 0.49.

Turning to GUUAACGGUCAUAGGCCAUGGAAACUAGGGGCACCAUUUCGCUGCCAGUGAAGAAAUGAACAAAGAAAAUCUGGGCCAGGCAGGCAUCAAAAGAAAUAGCCUUGCGCUCAACCAGAAAGUCUGUAAUCAUUUUAAGGGUA [A30G U100C], the self-cleavage came out at 1.93. GUUAACGGUCAUAGGCCAUGGAAACUAGGGGCACCAUUUCGCUACCAGUGAAGAAAUGAACAAAGAAAAUCUGGGCCAGGCAGGCAUCAAAAGAAAUAGUCUUGCGCUCAACCAGAAAGUCUGUAAUCAUUUUAAGGGUA [A30G G44A]: the self-cleavage turned out to be 1.15.

With GUUAACGGUCAUAGGCCAUGGAAACUAGGGGCACCAUUUCGCUGCCAGUGAAGAAAUGAACAAAGAAAAUCUGGGCCAGGCAGGCAUCAAAAGAAAUAGUCUUGCUCUCAACCAGAAAGUCUGUAAUCAUUUUAAGGGUA [A30G G106U], the self-cleavage stood at 0.04. Then GUUAACGGUCAUAGGCCAUGGAAACUAGGGGCACCAUUUCGCUGCCAGUGAAGAAAUGAACAAAGAAAAUCUGGGCCAGGCAGGCAUCAAAAGAAAUAGUCUUGCACUCAACCAGAAAGUCUGUAAUCAUUUUAAGGGUA [A30G G106A], with 0.07; and GUUAACGGUCAUAGGCCAUGGAAACUAGGGGCACCAUUUCGCUGCCAGGGAAGAAAUGAACAAAGAAAAUCUGGGCCAGGCAGGCAUCAAAAGAAAUAGUCUUGCGCUCAACCAGAAAGUCUGUAAUCAUUUUAAGGGUA [A30G U49G], with 1.48. Then GUUAACGGUCAUAGGCCAUGGAAACUAGGGGCACCAUAUCGCUGCCAGUGAAGAAAUGAACAAAGAAAAUCUGGGCCAGGCAGGCAUCAAAAGAAAUAGUCUUGCGCUCAACCAGAAAGUCUGUAAUCAUUUUAAGGGUA [A30G U38A], with 0.72. For the variant GUUAACGGUCAUAGGCCAUGGAAACUAGGGGCACCAUCUCGCUGCCAGUGAAGAAAUGAACAAAGAAAAUCUGGGCCAGGCAGGCAUCAAAAGAAAUAGUCUUGCGCUCAACCAGAAAGUCUGUAAUCAUUUUAAGGGUA [A30G U38C], the self-cleavage worked out at 1.62.

As to GUUAACGGUCAUAGGCCAUGGAAACUAGGGGCACCAUUCCGCUGCCAGUGAAGAAAUGAACAAAGAAAAUCUGGGCCAGGCAGGCAUCAAAAGAAAUAGUCUUGCGCUCAACCAGAAAGUCUGUAAUCAUUUUAAGGGUA [A30G U39C], the self-cleavage amounted to 1.05.

With GUUAACGGUCAUAGGCCAUGGAAACUAGGGGCACCAUUACGCUGCCAGUGAAGAAAUGAACAAAGAAAAUCUGGGCCAGGCAGGCAUCAAAAGAAAUAGUCUUGCGCUCAACCAGAAAGUCUGUAAUCAUUUUAAGGGUA [A30G U39A], the self-cleavage was found to be 0.39. Then GUUAACGGUCAUAGGCCAUGGAAACUAGGGGCACCAUUUCGCUGCCAGUGAAGAAAUGAACAAAGAAAAUCUGGGCCAGGCAGGCAUCAAAAGAAAUAGUCUAGCGCUCAACCAGAAAGUCUGUAAUCAUUUUAAGGGUA [A30G U103A], with 0.17; and GUUAACGGUCAUAGGCCAUGGAAACUAGGGGCACCAUUUCGCUGCCAGUGAAGAAAUGAACAAAGAAAAUCUGGGCCAGGCAGGCAUCAAAAGAAAUAGUCUUGCGCUCAACCAGAAAGUCUGUAAUCAUUUCAAGGGUA [A30G U133C], with 1.8; and GUUAACGGUCAUAGGCCAUGGAAACUAGGGGCACCAGUUCGCUGCCAGUGAAGAAAUGAACAAAGAAAAUCUGGGCCAGGCAGGCAUCAAAAGAAAUAGUCUUGCGCUCAACCAGAAAGUCUGUAAUCAUUUUAAGGGUA [A30G U37G], with 1.08. Then GUUAACGGUCAUAGGCCAUGGAAACUAGGGACACCAUUUCGCUGCCAGUGAAGAAAUGAACAAAGAAAAUCUGGGCCAGGCAGGCAUCAAAAGAAAUAGUCUUGCGCUCAACCAGAAAGUCUGUAAUCAUUUUAAGGGUA [A30G G31A], with 1.61; and GUUAACGGUCAUAGGCCAUGGAAACUAGGGGCACCAUUUCGCUGCCAGUGAAGAAAUGAACAAAGAAAAUCUGGGCCAGGCAGGCAUCAAAAGAAAUAGUCUUGCGCUCAAACAGAAAGUCUGUAAUCAUUUUAAGGGUA [A30G C112A], with 0.02; and GUUAACGGUCAUAGGCCAUGGAAACUAGGGGCACCAUUUCGCUGCCAGUGAAGAAAUGAACAAAGAAAAUCUGGGCCAGGCAGGCAUCAAAAGAAAUAGUCUUGCGCUCAAUCAGAAAGUCUGUAAUCAUUUUAAGGGUA [A30G C112U], with 0.04. On to GUUAACGGUCAUAGGCCAUGGAAACUAGGGGCACCAUUUCGCUGCCAGUGAAGAAAUGAACAAAGAAAAUCUGGGCCAGGCAGGCAUCAAAAGAAAUAGUCUUGCGCUCAACCAGAAAGUCUGUAAUCAUUCUAAGGGUA [A30G U132C], for which the self-cleavage is 1.36. With GUUAACGGUCAUAGGCCAUGGAAACUAGGGGCACCAUUUCGCUGCCAGUGAAGAAAUGAACAAAGAAAAUCUGGGCCAGGCAGGCAUCAAAAGAAAUAGUCUUGCGCUCAACCAGAAAGUCUGUAUUCAUUUUAAGGGUA [A30G A126U], the self-cleavage is 0.87. Then GUUAACGGUCAUAGGCCAUGGAAACUAGGGGCACCAUUUCGCUGCCAGUGAAGAAAUGAACAAAGAAAAUCUGGGCCAGGCAGGCAUCAAAAGAAAUAGUCUUGCGCUCAACCAGAAAGUCUGUAGUCAUUUUAAGGGUA [A30G A126G], with 1.23; and GUUAACGGUCAUAGGCCAUGGAAACUAGGGGCACCAUUUCGCUGCCAGUGAAGAAAUGAACAAAGAAAAUCUGGGCCAGGCAGGCAUCAAAAGAAAUAGUCUUGCGCUAAACCAGAAAGUCUGUAAUCAUUUUAAGGGUA [A30G C109A], with 0.23; and GUUAACGGUCAUAGGCCAUGGAAACUAGGGGCACCAUUUCGCUGCCAGUGAAGAAAUGAACAAAGAAAAUCUGGGCCAGGCAGGCAUCAAAAGAAAUAGUAUUGCGCUCAACCAGAAAGUCUGUAAUCAUUUUAAGGGUA [A30G C101A], with 0.14. On to GUUAACGGUCAUAGGCCAUGGAAACUAGGGGCACCAUUUCGCUGCCAGUGAAGAAAUGAACAAAGAAAAUCUGGGCCAGGCAGGCAUCAAAAGAAAUAGUCUUGCGCUCAACCAGAAAGUCUUUAAUCAUUUUAAGGGUA [A30G G123U], for which the self-cleavage was found to be 0.53. In the case of GUUAACGGUCAUAGGCCAUGGAAACUAGGGGCACCAUUUAGCUGCCAGUGAAGAAAUGAACAAAGAAAAUCUGGGCCAGGCAGGCAUCAAAAGAAAUAGUCUUGCGCUCAACCAGAAAGUCUGUAAUCAUUUUAAGGGUA [A30G C40A], the self-cleavage came to 1.42. Take GUUAACGGUCAUAGGCCAUGGAAACUAGGGGCACCAUUUCGCUGCCAGUGAAGAAAUGAACAAAGAAAAUCUGGGCCAGGCAGGCAUCAAAAGAAAUAGUCUUGCGCUCAACCAGAAAGUCUGUAAUCAUUUUAAGGGAA [A30G U139A]: the self-cleavage came to 1.46.

GUUAACGGUCAUAGGCCAUGGAAACUAGGGGCACCAUUUCGCUGCCAGUGAAGAAAUGAACAAAGAAAAUCUGGGCCAAGCAGGCAUCAAAAGAAAUAGUCUUGCGCUCAACCAGAAAGUCUGUAAUCAUUUUAAGGGUA [A30G G79A]: the self-cleavage worked out at 0.17.

Turning to GUUAACGGUCAUAGGCCAUGGAAACUAGGGGCACCAUUUCGCUGCCAGUGAAGAAACGAACAAAGAAAAUCUGGGCCAGGCAGGCAUCAAAAGAAAUAGUCUUGCGCUCAACCAGAAAGUCUGUAAUCAUUUUAAGGGUA [A30G U57C], the self-cleavage is 1.29.

For GUUAACGGUCAUAGGCCAUGGAAACUAGGGGCACCAUUUCGCUGCCAGUGAAGAAAUGAACAAAGAAAAUUUGGGCCAGGCAGGCAUCAAAAGAAAUAGUCUUGCGCUCAACCAGAAAGUCUGUAAUCAUUUUAAGGGUA [A30G C71U], the self-cleavage is 0.62.

For the origin of these results see the RNAGym collection of RNA variant scans (doi:10.7554/elife.90254).
